The assay deals with IL-1 receptor (human) (UniProt P14778). Briefly: cell-based or functional assay.
Chain of UniProt P14778 (P14778 18-569): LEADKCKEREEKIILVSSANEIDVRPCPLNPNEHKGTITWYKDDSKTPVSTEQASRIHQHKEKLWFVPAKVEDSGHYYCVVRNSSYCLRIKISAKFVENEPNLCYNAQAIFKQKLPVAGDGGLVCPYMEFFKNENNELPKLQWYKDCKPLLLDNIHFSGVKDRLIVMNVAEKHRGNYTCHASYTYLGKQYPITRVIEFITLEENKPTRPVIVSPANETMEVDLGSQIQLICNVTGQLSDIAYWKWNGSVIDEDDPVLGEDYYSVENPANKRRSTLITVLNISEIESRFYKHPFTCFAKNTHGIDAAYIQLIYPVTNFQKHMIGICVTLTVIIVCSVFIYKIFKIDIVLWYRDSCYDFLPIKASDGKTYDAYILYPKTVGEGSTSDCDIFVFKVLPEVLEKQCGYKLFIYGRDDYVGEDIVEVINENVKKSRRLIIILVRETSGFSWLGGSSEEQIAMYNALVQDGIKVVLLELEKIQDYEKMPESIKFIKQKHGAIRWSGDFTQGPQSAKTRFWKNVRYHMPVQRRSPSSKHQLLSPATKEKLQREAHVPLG

Substance “Kineret® (anakinra), recombinant IL-1 receptor antagonist (IL-1Ra) (from UniProt P18510 26-177) (ligand)” returned an IC50 (pM), inhibition of IL-1β induced IL-8 production in human whole blood of 53.4 pM.

Source of the values: US20110189172A1.
